T1: human DLL3 on SHP-77 cells (human, UniProt Q9NYJ7 27-618)
T1 construct: also called DLL3-expressing cells (SHP-77)
T1 sequence: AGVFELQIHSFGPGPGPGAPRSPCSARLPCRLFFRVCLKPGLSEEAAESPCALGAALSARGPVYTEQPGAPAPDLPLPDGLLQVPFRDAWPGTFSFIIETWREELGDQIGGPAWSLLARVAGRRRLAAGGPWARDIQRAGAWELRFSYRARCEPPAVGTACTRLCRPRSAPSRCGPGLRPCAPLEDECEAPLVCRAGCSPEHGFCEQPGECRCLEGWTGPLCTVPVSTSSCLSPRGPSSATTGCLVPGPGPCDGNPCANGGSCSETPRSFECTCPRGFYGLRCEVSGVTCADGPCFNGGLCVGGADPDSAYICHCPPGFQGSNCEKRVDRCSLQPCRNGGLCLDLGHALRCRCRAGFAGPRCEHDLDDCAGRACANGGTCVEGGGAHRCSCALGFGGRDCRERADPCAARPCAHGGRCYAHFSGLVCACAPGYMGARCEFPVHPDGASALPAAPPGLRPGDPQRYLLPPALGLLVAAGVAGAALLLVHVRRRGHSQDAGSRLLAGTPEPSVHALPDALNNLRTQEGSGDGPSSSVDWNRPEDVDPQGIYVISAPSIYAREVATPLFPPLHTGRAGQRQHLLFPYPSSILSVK

T2: Cynomolgus monkey DLL3 on HEK293 cells (HEK293-cyno DLL3) (Cynomolgus monkey, UniProt Q9NYJ7 27-618 (human entry))
T2 chain: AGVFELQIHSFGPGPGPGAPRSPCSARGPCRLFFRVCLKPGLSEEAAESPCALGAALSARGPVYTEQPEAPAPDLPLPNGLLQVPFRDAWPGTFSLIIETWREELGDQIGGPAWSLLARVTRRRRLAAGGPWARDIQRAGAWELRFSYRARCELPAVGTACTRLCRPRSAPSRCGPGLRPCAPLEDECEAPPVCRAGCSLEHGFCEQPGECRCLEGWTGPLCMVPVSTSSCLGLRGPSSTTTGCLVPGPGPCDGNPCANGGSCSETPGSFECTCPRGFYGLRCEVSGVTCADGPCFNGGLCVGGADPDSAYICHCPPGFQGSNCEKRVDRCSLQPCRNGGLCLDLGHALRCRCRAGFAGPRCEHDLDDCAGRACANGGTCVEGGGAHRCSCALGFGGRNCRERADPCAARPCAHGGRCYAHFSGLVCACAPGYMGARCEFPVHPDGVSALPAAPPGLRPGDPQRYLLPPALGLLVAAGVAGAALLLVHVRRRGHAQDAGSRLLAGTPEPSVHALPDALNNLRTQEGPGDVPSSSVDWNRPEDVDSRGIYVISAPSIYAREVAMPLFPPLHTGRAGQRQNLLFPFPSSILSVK


What was measured:
[1] = molecular target: T1, human DLL3 on SHP-77 cells; assay: flow cytometry, SHP-77 cells
Protocol: (§1) SHP-77 and HEK293-cyno DLL3 cells were cultured. The culture medium for SHP-77 cells were RPMI1640+10% FBS, and the culture medium for HEK293 cyno DLL3 cells were DMEM+10% FBS+200 μg/ml Hygromycin. The cells were cultured in a T75 cell culture flask at a 37° C. 5% CO₂ incubator. When using cells, they are washed with sterile DPBS, digested with 0.25% trypsin EDTA for about 5 minutes, and then stopped with a complete medium.
(§2) The digested cells were centrifuged at 1000 rpm for 5 min at room temperature. The supernatant was discarded and the cells were resuspended in 100 μL of 1% BSA (in PBS). The cells were counted and adjusted to a cell density of 1E6/m. The dilute cells were seeded in a 96-well round-bottom culture plate (corning 3799), and centrifuged at 1500 rpm for 5 min at 4° C. The supernatant was discarded and the cells were stored at 4° C. until use. Antibody samples to be tested were diluted with 1% BSA (in PBS) at a starting concentration of 100 nM, downwards by a 10-fold gradient for 7 concentrations. The cells were resuspended with the diluted antibody at 100 μL/well and incubated for 1 hour at 4° C. The cells were centrifuged at 1500 rpm for 5 minutes at 4° C. and the supernatant was discarded. The cells were resuspended and washed with 160 μL of 1% BSA (in PBS), centrifuged at 1500 rpm for 5 minutes at 4° C. The supernatant was discarded. The secondary antibody (goat anti human IgG Fc PE) was diluted 1:200 with 1% BSA (in PBS) according to the manufacturer's instructions and the cells were resuspended with the diluted secondary antibody, 100 μL/well, and incubated for 0.5 h at 4° C. The cells were centrifuged at 1500 rpm for 5 minutes at 4° C. and the supernatant was discarded. The cells were resuspended and washed with 160 μL of 1% BSA (in PBS), centrifuged at 1500 rpm for 5 minutes at 4° C. The supernatant was discarded. The cells were resuspended in 100 μL of 1% BSA (in PBS), and filtered across a 300 mesh gauze. The mean fluorescence intensity of the PE channels was measured by flow cytometry.
(§3) The analyzed mean fluorescence intensity was imported into Graphpad to analyze the median-binding concentration (hereinafter referred to as EC50) of antibody and cell and the top mean fluorescence intensity (Top MFI).

[2] = molecular target: T2, Cynomolgus monkey DLL3 on HEK293 cells …; assay: flow cytometry, HEK293-cyno DLL3 cells
Protocol: as §1, §2, §3

EC50 [1] | Top MFI [1] | EC50 [2] | Top MFI [2] | Binder
499 pM | 841 MFI | 540 pM | 336 MFI | DLL3-26 camelid-derived anti-DLL3 chimeric antibody (antibody, human IgG1, V domains shown) VH: QVQLVESGGGSVQAGGSLRLSCAASGDIYSSSYVGWFRQAPGKEREGVAIIYTSGDSTYYANSVKGRFTISQDKAKKTLYLQMNSLKPEDTAMYYCAARFAIDNSNYWGQGTQVTVSS
786 pM | 696 MFI | 2240 pM | 301 MFI | hDLL3-26 camelid-derived humanized anti-DLL3 antibody (antibody, V domains shown) VH: EVQLVESGGGLVQPGGSLRLSCAASGDIYSSSYVGWFRQAPGKEREGVAIIYTSGDSTYYADSVKGRFTISRDNSKNTLYLQMNSLRAEDTAVYYCAARFAIDNSNYWGQGTLVTVSS
61 pM | 864 MFI | 80 pM | 379 MFI | DLL3-3 camelid-derived anti-DLL3 chimeric antibody (antibody, human IgG1, V domains shown) VH: DVQLVESGGGSVQAGGSLKLSCKSPTYTISSGYMGWFRQAPGKEREGVAAIYIGGSTTLYADSVKGRFTISADNAEKTVYLQMNTLKPEDSAMYYCAAQLRPNSAYHPLDGRKYNYWGQGTQVTVSS
478 pM | 877 MFI | 580 pM | 351 MFI | DLL3-122 camelid-derived anti-DLL3 chimeric antibody (antibody, human IgG1, V domains shown) VH: QVQLVESGGGSVQAGGSLRLSCTASGDTYRSYCMGWFRKAPGKEREGVADIVSDGSTSYADSVKGRFTISKDNAKNTLYLQMNSLKPEDTAMYYCAVDRGGSGGYCYTGRYDYWGQGTQVTVSS
589 pM | 778 MFI | 990 pM | 351 MFI | hDLL3-122 camelid-derived humanized anti-DLL3 antibody (antibody, V domains shown) VH: EVQLVESGGGLVQPGGSLRLSCAASGDTYRSYCMGWFRQAPGKEREGVADIVSDGSTSYADSVKGRFTISRDNSKNTLYLQMNSLRAEDTAVYYCAVDRGGSGGYCYTGRYDYWGQGTLVTVSS
86 pM | 702 MFI | 220 pM | 346 MFI | hDLL3-3-1 camelid-derived humanized anti-DLL3 antibody (antibody, human IgG1, V domains shown) VH: EVQLVESGGGLVQPGGSLRLSCAASTYTISSGYMGWFRQAPGKEREGVAAIYIGGSTTLYADSVKGRFTISRDNSKNTLYLQMNSLRAEDTAVYYCAAQLRPNSAYHPLDGRKYNYWGQGTLVTVSS
49 pM | 691 MFI | 150 pM | 344 MFI | hDLL3-3-2 camelid-derived humanized anti-DLL3 antibody (antibody, V domains shown) VH: EVQLVESGGGLVQPGGSLRLSCKSPTYTISSGYMGWFRQAPGKEREGVAAIYIGGSTTLYADSVKGRFTISRDNSKNTLYLQMNSLRAEDTAVYYCAAQLRPNSAYHPLDGRKYNYWGQGTLVTVSS

Source: US20240239878A1 (SHANGHAI QILU PHARMACEUTICAL RESEARCH AND DEVELOPMENT CENTRE, published 2024)
